{
  "source": "paper PMC3001128",
  "origin": "cited, not measured here",
  "key": {"[1]": {"target": "CD48 IgV (UniProt P18181)", "sequence (P18181 29-125)": "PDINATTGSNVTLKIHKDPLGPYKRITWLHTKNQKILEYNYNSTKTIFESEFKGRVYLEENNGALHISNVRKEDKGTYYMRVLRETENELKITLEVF"}, "[2]": {"target": "CD58 IgV (Homo sapiens) (UniProt P19256)", "sequence (P19256 30-121)": "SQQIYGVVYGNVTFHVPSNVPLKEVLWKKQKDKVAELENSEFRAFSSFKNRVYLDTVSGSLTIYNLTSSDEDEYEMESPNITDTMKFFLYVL"}, "[3]": {"target": "GITR (Homo sapiens) (UniProt Q9Y5U5)", "sequence (Q9Y5U5 26-241)": "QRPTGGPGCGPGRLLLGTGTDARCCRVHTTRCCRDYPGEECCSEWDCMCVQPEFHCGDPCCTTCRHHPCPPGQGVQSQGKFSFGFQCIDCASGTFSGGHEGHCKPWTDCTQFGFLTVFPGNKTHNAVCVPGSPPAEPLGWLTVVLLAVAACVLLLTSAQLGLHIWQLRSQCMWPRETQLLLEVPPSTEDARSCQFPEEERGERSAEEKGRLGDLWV"}, "[4]": {"target": "NTB-A (Homo sapiens) (UniProt Q96DU3)"}, "[5]": {"target": "SLAM (CD150) (Homo sapiens) (UniProt Q13291)"}},
  "data": [
    {"substance": "2B4 IgV (from UniProt Q07763)", "values": [
      {"measurement": "Kd", "setting": "[1]", "result": 4, "unit": "µM"}
    ]},
    {"substance": "CD2 IgV (from UniProt P06729)", "values": [
      {"measurement": "Kd", "setting": "[2]", "result": 10, "unit": "µM"}
    ]},
    {"substance": "GITRL (from UniProt Q9UNG2)", "values": [
      {"measurement": "Kd", "setting": "[3]", "result": 0.56, "unit": "µM"}
    ]},
    {"substance": "NTB-A (from UniProt Q96DU3)", "values": [
      {"measurement": "Kd", "setting": "[4]", "result": 2, "unit": "µM"}
    ]},
    {"substance": "SLAM (CD150) (from UniProt Q13291)", "values": [
      {"measurement": "Kd", "setting": "[5]", "result": 200, "unit": "µM"}
    ]}
  ]
}
